# Test results reported in US9067983B2, “Anti-inflammatory antibodies and uses therefor” (DecImmune Therapeutics, Inc., priority 2009, dated 2015).
# B1: 21G6: murine anti-N2 IgG1 produced by hybridoma PTA-9393; VH SEQ ID NO: 14, VL SEQ ID NO: 20 (antibody, listed as Mus sp., V domains shown)
# VH: QVQLQESGAELVKPGASVKLSCKASGYTFTSYYMYWVKQRPGQGLEWIGGINPSNGGTNFNEKFKSKATLTVDKSSSTAYMQLSSLTSEDSAVYYCTRWGYDREWFAYWGQGTLVTVSA
# VL: DIVMTQAAPSVPVTPGESVSISCRSSKSLLHSNGNTYLYWFLQRPGQSPQVLIYRMSNLASGVPDRFSGSGSGTAFTLRISRVEAEDVGVYYCMQHLEYPFTFGSGTKLEIKR
# Legend:
# [1] = biological target: N2 peptide (N2 region of non-muscle myosin II heavy chain) (Mus musculus, UniProt Q61879); assay: binding of hybridoma antibodies to the N2 peptide in vitro
# Description: (§1) A panel of mouse hybridomas were prepared to identify the N2 region of non-muscle myosin II heavy chain. Thus, mice were immunized with the N2 peptide (Ac-LMKNMDPLNDNV (SEQ ID NO: 33)) coupled to a carrier protein (KLH). This region (N2) is highly conserved and identical in mouse and man. […] 12A6 is a IgG2b isotype. Its VH most closely matches the germ line gene 3609.11.169 sequence paired with DH: DSP2/DFL16.1 and its light chain is a V kappa 8-27 with JK1. 21G6 is an IgG1 isotype with its VH matching J558.35; DH: DSP2.6/DSP2.4/DSP2.3 and JH: JH3. Its light chain is V kappa hf24 and JK4.
# [2] = test system: N2 self-peptide; assay: binding of anti-N2 antibody in vivo in heart after LAD occlusion and reperfusion (confocal microscopy); parameters: species or system mouse; details: B6 mice
# Description: Specificity of the anti-N2 antibody. B6 mice were injected i.v. with fluorescently-labeled anti-N2 antibody (12A6) and anti-CD31 antibody prior to 60 min LAD occlusion and 30 min reperfusion. Following treatment, hearts were collected, fixed, and analyzed by confocal microscopy. The area at risk (left ventricle) was compared with the non-risk area (right ventricle). Quantification of the individual antibody staining as well as the merged images both in the area at risk and non-risk area is shown in FIG. 5.
# [3] = test system: B6 mice; assay: murine myocardial infarction model (1 h LAD occlusion, 24 h reperfusion); format: in vivo, mouse; details: pretreatment with 100 ugs of Fab'2 fragment (Fc removed)
# Description: as §1
# B6 mice were subjected to 1 h LAD occlusion followed by 24 h reperfusion. […] Following reperfusion, both serum troponin-I levels (A) and mouse IgM deposition (B) were analyzed and statistical significance for each was evaluated by Student's t test (FIG. 3).
# […] Serum troponin-I levels were measured after 24 h reperfusion.
molecule,measurement,setting,value
B1,binding to the N2 peptide in vitro,[1],bind the N2 peptide
same,binding to the N2 self-peptide in vivo,[2],bind the N2 peptide
same,ischemia reperfusion injury,[3],blocks ischemia reperfusion injury
